Patent US20110086026A1 (ROCHE PALO ALTO, published 2011)

Experiments:
[1] = biological target: Cynomolgus IL-13Rα1 expressed in transfected Ba/F3 cells (Cynomolgus); test: FACS, transfected against parental Ba/F3 cells; secondary reagent only
[2] = biological target: Cynomolgus IL-13Rα1 expressed in transfected Ba/F3 cells (Cynomolgus); test: FACS on Ba/F3 cells transfected with Cynomolgus IL-13Rα1; secondary reagent only
[3] = biological target: Cynomolgus IL-13Rα1 expressed in transfected Ba/F3 cells (Cynomolgus); test: FACS, transfected against parental Ba/F3 cells; negative control
[4] = biological target: Cynomolgus IL-13Rα1 expressed in transfected Ba/F3 cells (Cynomolgus); test: FACS on Ba/F3 cells transfected with Cynomolgus IL-13Rα1; negative control
human IL-13Rα1 [5] = biological target: T1, human IL-13Rα1 (human, UniProt P78552 22-427); test: cell-based or functional assay
T1 sequence (looked up): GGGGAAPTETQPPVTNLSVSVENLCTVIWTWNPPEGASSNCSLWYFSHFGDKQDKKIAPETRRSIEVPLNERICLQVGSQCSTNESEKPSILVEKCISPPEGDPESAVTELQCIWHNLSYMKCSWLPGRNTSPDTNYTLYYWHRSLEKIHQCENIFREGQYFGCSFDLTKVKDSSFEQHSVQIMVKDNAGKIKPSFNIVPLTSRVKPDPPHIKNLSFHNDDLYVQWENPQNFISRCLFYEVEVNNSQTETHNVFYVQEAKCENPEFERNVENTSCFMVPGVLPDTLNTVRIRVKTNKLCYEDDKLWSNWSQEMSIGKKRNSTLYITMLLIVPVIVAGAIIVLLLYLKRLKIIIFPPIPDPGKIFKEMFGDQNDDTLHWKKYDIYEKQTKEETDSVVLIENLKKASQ

[6] = biological target: Cynomolgus IL-13Rα1 expressed in transfected Ba/F3 cells (Cynomolgus); test: FACS, transfected against parental Ba/F3 cells, 10 µg/ml
[7] = biological target: Cynomolgus IL-13Rα1 expressed in transfected Ba/F3 cells (Cynomolgus); test: FACS on Ba/F3 cells transfected with Cynomolgus IL-13Rα1, 10 µg/ml
human IL-13Rα1 [8] = biological target: T1, human IL-13Rα1; test: displacement of 125I-IL-13 on CHO cells expressing human IL-13Rα1 and IL-4Rα
[9] = biological target: Chimeric protein murine IL-13Rα1:hFc (R&D Systems, UK) (mouse) (UniProt O09030); test: ELISA, immobilized murine IL-13Rα1:hFc, detection with anti-goat IgG-POD, OD 405nm
[10] = biological target: extracellular domain of IL-13Rα1 (R&D Systems, UK) (human) (UniProt P78552); test: ELISA, immobilized extracellular domain of human IL-13Rα1, detection with anti-goat IgG-POD, OD 405nm-492nm
[11] = biological target: T2, extracellular domain of hIL-13Rα1 cleaved from hIL-13Rα1:hFc chimeric protein (human, UniProt P78552 22-343); test: SPR Biacore 3000, C1 chip, HuMab captured by anti-hFcγ, cleaved hIL-13Rα1 as analyte, 1:1 Langmuir model
T2 construct: extracellular domain; also called Cleaved hIL-13Rα1 molecules (MW 40 kDa)
T2 sequence (looked up): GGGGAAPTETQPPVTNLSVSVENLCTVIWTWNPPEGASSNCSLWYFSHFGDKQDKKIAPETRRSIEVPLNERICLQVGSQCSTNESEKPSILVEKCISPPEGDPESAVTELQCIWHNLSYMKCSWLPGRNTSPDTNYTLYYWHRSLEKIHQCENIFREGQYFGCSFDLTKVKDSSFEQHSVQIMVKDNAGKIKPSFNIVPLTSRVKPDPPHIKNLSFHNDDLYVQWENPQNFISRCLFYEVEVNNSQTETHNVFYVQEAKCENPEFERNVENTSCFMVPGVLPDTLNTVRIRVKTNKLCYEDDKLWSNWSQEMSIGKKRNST
Description: For interaction analysis, a Biacore 3000 instrument was used. Running and reaction buffer was HBS-P (10 mM HEPES, 150 mM NaCl, 0.005% polysurfactant P, pH 7.4) at 25° C. Capturing antibody molecules (anti-hFcγ) were amine-coupled at a concentration of 100 μg/ml at a flow rate of 5 μl/min for 20 minutes. HuMabs were injected at concentrations of 10 μg/ml at a flow rate of 10 μl/min for 30 seconds. Cleaved hIL-13Rα1 molecules (MW 40 kDa) were injected for 200 seconds at seven concentrations between 1.56 nM and 100 nM and washed with HBS-P for five minutes. Regeneration of the surface was accomplished by two injections of 100 mM HCl for 1 min each at a flow rate of […]. The chip, assay format and sequence of injections and kinetic data correspond to the description in the following Table 3. Kinetic data were calculated by fitting kinetic data to a 1:1 Langmuir binding model.

[12] = biological target: T2, extracellular domain of hIL-13Rα1 …; test: SPR Biacore 3000, CM5 chip, HuMab captured by anti-hFcγ, cleaved hIL-13Rα1 as analyte, bivalent analyte model
Description: (§1) In these experiments, the affinity of the original IgG1 derived from hybridoma was compared with the affinities of the recombinant variant IgG1-Ala-Ala. For interaction analysis, a Biacore 3000 instrument was used. Running and reaction buffer was HBS-P (10 mM HEPES, 150 mM NaCl, 0.005% polysurfactant P, pH 7.4) at 25° C. Capturing antibody molecules (anti-hFcγ) were amine-coupled at a concentration of 20 μg/ml at a flow rate of 5 μl/min for 20 minutes. HuMabs were injected at concentrations of 10 μg/ml at a flow rate of 10 μl/min for 1 minute. Cleaved hIL-13 Rα1 molelcules (analyte) were injected for five minutes at eight concentrations between 1.56 nM and 200 nM and washed with HBS-P for five minutes. Regeneration of the surface was accomplished by two injections of 100 mM HCl for 1 min each. The chip, assay format and sequence of injections and kinetic data correspond to the description in Table 4. Kinetic data were calculated by fitting kinetic data to a bivalent analyte binding model.

[13] = biological target: T2, extracellular domain of hIL-13Rα1 …; test: SPR Biacore 3000, CM5 chip, HuMab captured by anti-hFcγ, cleaved hIL-13Rα1 as analyte, bivalent analyte model (ka1)
Description: as §1

[14] = biological target: T2, extracellular domain of hIL-13Rα1 …; test: SPR Biacore 3000, CM5 chip, HuMab captured by anti-hFcγ, cleaved hIL-13Rα1 as analyte, bivalent analyte model (kd1)
Description: as §1

Chimeric protein murine IL-13Rα1:hFc (R&D Systems, UK) (mouse), sequence (O09030 26-340, change not shown): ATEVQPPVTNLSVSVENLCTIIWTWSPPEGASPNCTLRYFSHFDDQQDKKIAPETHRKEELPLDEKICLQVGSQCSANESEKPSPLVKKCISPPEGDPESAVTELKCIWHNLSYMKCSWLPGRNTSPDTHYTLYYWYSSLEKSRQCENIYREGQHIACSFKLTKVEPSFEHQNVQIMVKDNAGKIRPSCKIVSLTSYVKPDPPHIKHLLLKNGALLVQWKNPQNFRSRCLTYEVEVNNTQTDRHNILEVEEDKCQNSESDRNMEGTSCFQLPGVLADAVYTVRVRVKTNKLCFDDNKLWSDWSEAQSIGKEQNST

Anti human IgG-FITC only (antibody)
Fold Increase in MFI in the presence of Cyno IL-13Rα1 [1]: 2.2
MFI Ba/F3 Cyno IL-13Rα1 [2]: 5.5 MFI

Normal human IgG1 (Nordic) (antibody)
Fold Increase in MFI in the presence of Cyno IL-13Rα1 [3]: 6.7
MFI Ba/F3 Cyno IL-13Rα1 [4]: 10.2 MFI

Normal goat IgG (antibody)
Fold Increase in MFI in the presence of Cyno IL-13Rα1 [3]: 2.4
MFI Ba/F3 Cyno IL-13Rα1 [4]: 5.7 MFI

polyclonal goat anti-hIL-13Rα1 antibody AF152 (R&D Systems)
IC50, IL-13-induced Stat-6 phosphorylation in BSMC (human IL-13Rα1 [5]): 18.6 nM
IC50, TF-1 proliferation in response to IL-13 (human IL-13Rα1 [5]): 13.5 nM
IC50 for IL-4-induced TF-1 proliferation (human IL-13Rα1 [5]): 74.4 nM
IC50 for inhibiting of CD23 upregulation on B-lymphocytes (IL-13 induced) (human IL-13Rα1 [5]): 13.6 nM
IC50 for inhibition of IL-13 induced CD23 upregulation on human monocytes (human IL-13Rα1 [5]): 62.9 nM
average IC50, eotaxin release of HFL-1 cells in response to IL-13 (human IL-13Rα1 [5]): 11.5 nM
Fold Increase in MFI in the presence of Cyno IL-13Rα1 [6]: 18
MFI Ba/F3 Cyno IL-13Rα1 [7]: 21.2 MFI
IC50 (human IL-13Rα1 [8]): 84.8 nM
EC50 (read off the curve) [9]: 0.2 nM
EC50 (read off the curve) [10]: 0.6 nM

B1: LC5002-005, mutant L234A; L235A (antibody, V domains shown)
VH: EVQVLDSGGGLVQPGGSLRLSCTASGFTFRLYTMSWVRQTPGRGLEWVSGISGSGLSTYFADSVKGRFTISRDNSKNTVYLQMNSLRAEDTAVYYCAKEGDWIYFDSWGQGTLVIVSS
VL: DIQMTQSPSSLSASVGDRVTITCRASQGISSWLAWYQQKPEKAPKSLIYAASSLQSGVPSRFSGSGSGTDFTLTISSLQPEDFATYYCQQYNSHPPTFGQGTKLEIKR
notes: Recombinant IgG1 variant; also called IgG1 ala-ala LC5002-005; recombinant variant IgG1-Ala-Ala
Kd [11]: 0.21 nM
koff [11]: 0.00029 s⁻¹
kon [11]: 1.4e+06 M⁻¹ s⁻¹
Kd [12]: 2.8 nM
kon [13]: 153000 M⁻¹ s⁻¹
koff [14]: 0.00042 s⁻¹
